Laboratory results reported in paper PMC6426935.

Columns and labels:
[1] = target: recombinant Der f 21 with N-terminal 6x-His-tag (Dermatophagoides farinae) (UniProt B2GM84); test: SEC-MALS; Superdex S75 increase, 20 mM Tris pH 7.9, 50 mM NaCl; 100 uL loaded at 5 mg/mL
[2] = target: recombinant Der f 21 with the His-tag cleaved (Dermatophagoides farinae) (UniProt B2GM84); test: static light scattering; crDer f 21 at 0.25, 1.00 and 1.50 mg/mL

Row | stoichiometry N [1] | stoichiometry N [2] | Substance
1 | 2 | – | recombinant Der f 21 with N-terminal 6x-His-tag (from UniProt B2GM84 25-136) (natural protein)
2 | – | 2 | recombinant Der f 21 with the His-tag cleaved (from UniProt B2GM84 25-136) (natural protein)
